From article PMC11082178

Molecular target: CRF01_AE Env consensus with redesigned HV loops, version 1 (shortest V1HV, without the 'IGNITD' motif), Env on pseudovirus (HIV-1 CRF01_AE (consensus))

Q: 10-1074 (antibody) was tested. Which neutralisation of Env pseudovirus in TZM-bl cells, IC50 did it give?
A: 0.544 µg/mL
